Patent US20220332804A1 (CSL INNOVATION, published 2022)
Numbering of substitutions follows the chain as printed.

How the values were obtained:
Experiment in all cases: SPR, KD relative to WT C2;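 further: biacore SPR at 37 °C, anti-C2 mAbs captured via immobilised goat anti-human IgG, C2 alanine or serine surface mutants as analytes, 1:1 model fitted, double-referenced sensograms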
human C2 P718A = biological target: T1, human C2 P718A (human, UniProt P06681 21-752)
T1 sequence: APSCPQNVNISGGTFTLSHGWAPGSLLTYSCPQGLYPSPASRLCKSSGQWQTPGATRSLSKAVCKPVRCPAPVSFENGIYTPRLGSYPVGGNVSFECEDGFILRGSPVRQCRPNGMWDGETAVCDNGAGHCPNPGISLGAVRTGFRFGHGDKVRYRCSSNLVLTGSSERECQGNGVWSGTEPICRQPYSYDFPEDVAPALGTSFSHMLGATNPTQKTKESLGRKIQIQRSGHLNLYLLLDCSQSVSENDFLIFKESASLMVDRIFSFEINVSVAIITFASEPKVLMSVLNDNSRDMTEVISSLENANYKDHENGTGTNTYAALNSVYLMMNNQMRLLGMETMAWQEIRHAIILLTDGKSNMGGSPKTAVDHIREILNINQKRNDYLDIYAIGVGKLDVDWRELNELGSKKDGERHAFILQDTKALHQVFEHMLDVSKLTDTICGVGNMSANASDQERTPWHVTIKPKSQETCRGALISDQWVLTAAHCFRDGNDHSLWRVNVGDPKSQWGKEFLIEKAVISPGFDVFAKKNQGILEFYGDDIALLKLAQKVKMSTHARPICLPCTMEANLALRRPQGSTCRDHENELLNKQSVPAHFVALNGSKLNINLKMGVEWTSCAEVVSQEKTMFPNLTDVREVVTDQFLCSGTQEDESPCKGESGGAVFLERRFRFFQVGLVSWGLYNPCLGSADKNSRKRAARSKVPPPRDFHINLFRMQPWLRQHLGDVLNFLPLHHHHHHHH

human C2 S428A = biological target: T2, human C2 S428A (human, UniProt P06681 21-752)
T2 sequence: T1 sequence with S408A, A698P

human C2 T442A = biological target: T3, human C2 T442A (human, UniProt P06681 21-752)
T3 sequence: T1 sequence with T422A, A698P

human C2 V455A = biological target: T4, human C2 V455A (human, UniProt P06681 21-752)
T4 sequence: T1 sequence with V435A, A698P

B1: RF16-226 (antibody, human IgG4 S228P, lambda)
heavy: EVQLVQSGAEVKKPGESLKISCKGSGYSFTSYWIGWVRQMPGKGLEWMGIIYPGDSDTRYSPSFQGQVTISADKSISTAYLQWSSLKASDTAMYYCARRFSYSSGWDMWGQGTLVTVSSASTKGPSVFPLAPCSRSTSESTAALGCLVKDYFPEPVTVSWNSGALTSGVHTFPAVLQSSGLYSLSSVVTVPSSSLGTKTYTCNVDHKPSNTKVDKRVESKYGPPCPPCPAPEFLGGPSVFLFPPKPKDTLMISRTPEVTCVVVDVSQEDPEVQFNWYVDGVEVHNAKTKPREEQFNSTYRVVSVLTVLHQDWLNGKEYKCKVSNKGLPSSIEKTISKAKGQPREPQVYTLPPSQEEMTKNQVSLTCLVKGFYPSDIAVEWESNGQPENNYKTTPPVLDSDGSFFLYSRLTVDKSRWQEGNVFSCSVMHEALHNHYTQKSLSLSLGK
light: SYELTQPPSVSVSPGQTARITCSGDALTSKYVAWYQQKSGLAPLLVIYEDTRRPSGIPAKFSGSSSGSVATLTISGAHGDDEADYYCYSTDASGHQRVFGGGTKLTVLSQPKAAPSVTLFPPSSEELQANKATLVCLISDFYPGAVTVAWKADGSPVKAGVETTKPSKQSNNKYAASSYLSLTPEQWKSHRSYSCQVTHEGSTVEKTVAPTECS
notes: pH-dependent anti-C2 antibody from a phage display library; also called WT
B1 gave a Fold diff (human C2 P718A) of 2 fold, a Fold diff (human C2 S428A) of 2 fold and a Fold diff (human C2 T442A) of 2 fold. It also gave a Fold diff (human C2 V455A) of 1 fold.
